Test: yeast display, Sf9 membrane polyspecificity reagent, FACS + sequencing; frameworks hold sequencing errors
In short: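 A nanobody's polyreactivity label depends on the gate it was sorted from. Yeast display cells were stained with 10% biotinylated, detergent-solubilized Sf9 membrane reagent for 1 hour at 4 °C, enriched on streptavidin microbeads and sorted by FACS. The low and high (top ~1%) gates were set on anti-HA fluorescence for expression and streptavidin fluorescence for reagent binding.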

QVQLVESGGGLVQAGGSLRLSCAASGRIFAKNAMGWYRQAPGKERELVAAISGSGGSTYYADSVKGRFTISRDNAKNTVYLQMNSLKPDDTAVYYCAATRGPNYRNGYWGQGTQVTVSS
polyreactivity (PSR sort gate): high polyreactivity

QVQLVESGGGLVQAGGSLRLSCAASGRIFAKNTMGWYRQAPGKERELVAAITWSSGNTDYADSVKGRFTISRDNAKNTVYLQMNSLKPEDTAVYYCAAYPRWTYWGYVERYYWGQGTQVTVSS
polyreactivity (PSR sort gate): high polyreactivity

QVQLVESGGGLVQAGGSLRLSCAASGRIFANYAMGWYRQAPGKERELVAAISRSGGSTSYADSVKGRFTISRDNAKNTVYLQMNSLKPEDTAVYYCAATRSRYQPVKYGYWGQGTQVTVSS
polyreactivity (PSR sort gate): high polyreactivity

QVQLVESGGGLVQAGGSLRLSCAASGRIFAPNAMGWYRQAPGKEREFVASIRWNGGSTYYADSVKGRFTISRDNAKNTVYLQMNSLKPADTAVYYCAARGWGYRRNYVYAWYDYWGQGTQVTVSS
polyreactivity (PSR sort gate): high polyreactivity

QVQLVESGGGLVQAGGSLRLSCAASGRIFAPNAMGWYRQAPGKERELVAAISFSGDSTSYADSVKGRFTISRDNAKNTVYLQMNSLKPEDTAVYYCATDRRVQYPLGPSYDYDYWGQGTQVTVSS
polyreactivity (PSR sort gate): low polyreactivity

QVQLVESGGGLVQAGGSLRLSCAASGRIFAPYAMGWYRQAPGKERELVAGISIGGSTYYADSVKGRFTISRDNAKNTVYLQMNSLKPEDTAVYYCAALYNFWYSTYYYWGQGTQVTVSS
polyreactivity (PSR sort gate): high polyreactivity

QVQLVESGGGLVQAGGSLRLSCAASGRIFARNAMGWSRQAPGKERELVAAISGGGNTYADSVKGRFTISRDNAKNTVYLQMNSLKPEDTAVYYCARVVHFRGVRYDYWGQGTQVTVSS
polyreactivity (PSR sort gate): high polyreactivity

QVQLVESGGGLVQAGGSLRLSCAASGRIFARNAMGWSRQAPGKERELVAASSSGGGSTYYADSVKGRFTISRDNAKNTVYLRMISLKPEDTAVYYCAARTRITYDWGQGTQVTVSS
polyreactivity (PSR sort gate): low polyreactivity

QVQLVESGGGLVQAGGSLRLSCAASGRIFARNAMGWYRQAPGKERELVATIRVGGGSTYYADSVKGRFTISRDNAKNTVYLQMNSLKPEDTAVYSCAVRQLYSYPGDRRGYYWGQGTQVTVSS
polyreactivity (PSR sort gate): low polyreactivity

QVQLVESGGGLVQAGGSLRLSCAASGRIFARYAMGWYRQAPGKERELVAAITVSGDNTYYADSVKGRFTISRDNAKNTVYLQMNSLKPEDTAVYYCNAYFLVHYRRLRPYDYWGQGTQVTVSS
polyreactivity (PSR sort gate): low polyreactivity

QVQLVESGGGLVQAGGSLRLSCAASGRIFASNAMGWYRQAPGKERELVAAIDQGGGSTYYADSVKGRFTISRDNAKNTVYLQMNSLKPEDTAVYDCAADYISAYPRLYNYWGQGTQVTVSS
polyreactivity (PSR sort gate): low polyreactivity

QVQLVESGGGLVQAGGSLRLSCAASGRIFASNDMGWYRQAPGKEREWVAAITSGGSTYYADSVKGRFTISRDNAKNTVYLQMNSLKPEDTAVYYCAAGSAYYSQRYFAYGYYSWGQGTQVTVSS
polyreactivity (PSR sort gate): low polyreactivity

QVQLVESGGGLVQAGGSLRLSCAASGRIFASYAMGWYRQAPGKERELVAAISGSGASTYYADSVKGRFTISRDNAKNTVYLQMNSLKPEDTAVYYCAAKATSEGDEYWGQGTQVTVSS
polyreactivity (PSR sort gate): high polyreactivity

QVQLVESGGGLVQAGGSLRLSCAASGRIFASYAMGWYRQAPGKERELVAAISWGDDSTYYADSVKGRFTISRDNAKNTVYLQMNSLKPEDTAVYYCAAAFWFGPYRLYYWGQGTQVTVSS
polyreactivity (PSR sort gate): high polyreactivity

QVQLVESGGGLVQAGGSLRLSCAASGRIFATYVMGGYRQAPGKERELVATISSGGSTNYADSVKGRFTISRDNAKNTVYLQMNSLKPEDTAVYYCAVVDGNYWYVKGDYWGQGTQVTVSS
polyreactivity (PSR sort gate): low polyreactivity

QVQLVESGGGLVQAGGSLRLSCAASGRIFAWNAMGWYRQAPGKERELVAAITRGTNTYYADSVKGRFTISRDNAKNTVYLQMNSLKPEDTAVYYCAARLPYNAIGYYYWGQGTQVTVSS
polyreactivity (PSR sort gate): low polyreactivity

QVQLVESGGGLVQAGGSLRLSCAASGRIFAWNAMGWYRQAPGKERELVARIRVSGGRTYYADSVKGRFTISRDNAKNTVYLQMKSLKPDDTAVYYCNAYLRSGSMDYWGQGTQVTVSS
polyreactivity (PSR sort gate): high polyreactivity

QVQLVESGGGLVQAGGSLRLSCAASGRIFAYNALGWYRQAPGKERELVAAISWSGSSTYYADSVKGRFTISRDNAQNRVYLQMNSLTPEDTAVYYCAATPWYYYSTSYAYYDWGQGTQVTVSA
polyreactivity (PSR sort gate): high polyreactivity

QVQLVESGGGLVQAGGSLRLSCAASGRIFAYNTMGWYRQAPGKERELVAVITSGGSTNYADSVKGRFTISRDNAKNTVYLQMNSLKPEDTAVDYCNAPYVARKRFSYNYWGQGTQVTVSS
polyreactivity (PSR sort gate): high polyreactivity

QVQLVESGGGLVQAGGSLRLSCAASGRIFAYYAMGWYRQAPGKERELVAAISGSDGSTYYADSVKGRFTISLDNAKNTVYLQMNSLKPEDTAVYYCAAQDTPGYDYWGQGTQVTVSS
polyreactivity (PSR sort gate): low polyreactivity

QVQLVESGGGLVQAGGSLRLSCAASGRIFAYYAMGWYRQAPGKERELVATINYSGTSTYYADSVKGRFTISRDNAKNTVYLQMNSLKPEDTAVYYCAARYGYAVYYYGTPVRRYYYWGQGTQVTVSS
polyreactivity (PSR sort gate): high polyreactivity

QVQLVESGGGLVQAGGSLRLSCAASGRIFAYYAMGWYRQAPGKERELVATITDSGDDTYYADSVKGRFTISRDNAKNTVYLQMNSLKPEDTAVYYCNAVWRGWYPYWYDYWGQGTQVTVSS
polyreactivity (PSR sort gate): low polyreactivity

QVQLVESGGGLVQAGGSLRLSCAASGRIFAYYAMGWYRQAPGKESELVAAINWSGDGTNYADSVKGRFTISRDNAKNTVYLQMNSLKPVDTAVYYCAARLGHSVNPGGERWDVEYWGQGTQVTVSS
polyreactivity (PSR sort gate): low polyreactivity

QVQLVESGGGLVQAGGSLRLSCAASGRIFAYYAMGWYRQAPGTERELVALISSTGGSTYYADSVKGRFTISRDNAKNTVYLQMNSLKPEDTAVYYCNKQVTGAERFQGHGAYYWGQGTQVTVSS
polyreactivity (PSR sort gate): high polyreactivity

QVQLVESGGGLVQAGGSLRLSCAASGRIFAYYTMGWYRQAPGKERELVASITSGSSTNYADSVKGLFTISRDNAKNTVYLQMNSLKPEDTAVYYCAAPRGSYVRTRYRGYVVQSNYWGQGTQVTVSS
polyreactivity (PSR sort gate): high polyreactivity

QVQLVESGGGLVQAGGSLRLSCAASGRIFDANAMGWYRQAPGKERELVAAINLSGTSTYADSVKGRFTISRDNAKNTVYLQMNSLKPEDTAVYYCNKRSPSTIRFDYWGQGTQVTVSS
polyreactivity (PSR sort gate): high polyreactivity

QVQLVESGGGLVQAGGSLRLSCAASGRIFDDNTMGWSRQAPGKERELVAVITSGGSTNYADSVKGRFTISRDNAKNTVYLQMNSLKQEDTAVYYCATEPGGYRFADRPFQYGYWGQGTQVTVSS
polyreactivity (PSR sort gate): low polyreactivity

QVQLVESGGGLVQAGGSLRLSCAASGRIFDFNAMGWYRQAPGKDRELLAAISRGGGSTYYADSVKGRFTMSRDNAKYTVYLQMNSLKPEDTAVYYCNADYYYPLRSNKYYYWGQGTQVTVSS
polyreactivity (PSR sort gate): high polyreactivity

QVQLVESGGGLVQAGGSLRLSCAASGRIFDFNAMGWYRQAPGKEREVVAAISSGGRTKYADSVKGRFTISRDNAKNTVYLQMNSLKPEDTAVYYCAASGSQPDDYWGQGTQVTVSS
polyreactivity (PSR sort gate): high polyreactivity

QVQLVESGGGLVQAGGSLRLSCAASGRIFDFYGMGWYTQAPGKERELVAAISRRSGSTYYADSVKGRFTISRDNAKNTDYLQMNSLKPEDTAVYYCAAEPSSYRYDYWGQGTQGTVSS
polyreactivity (PSR sort gate): high polyreactivity

QVQLVESGGGLVQAGGSLRLSCAASGRIFDGYAMGWYIQAPGKERELVAAISSRGGRTYYADSVKGRFTISRDNAKNTVYLQMNSLKPEDSAVYYCAADDPYGECDYWGQGTQVTVSS
polyreactivity (PSR sort gate): low polyreactivity

QVQLVESGGGLVQAGGSLRLSCAASGRIFDGYAMGWYRQAPGQERELVAAISSRGGRTYYADSVKGRFTISRDHAKNTVYLQMNSLKPEDTAVYYCAADDPYGEGDYWGQGTQVTVSS
polyreactivity (PSR sort gate): low polyreactivity

QVQLVESGGGLVQAGGSLRLSCAASGRIFDGYDMGWYRQAPGKERELVAAITSVGSTNYADSVKGRFTISRDNAKNTVYLQMNSLKPEDSAVYYCAAVLYVFYDEYGYWEYFSQYDYWGQGTQVTVSS
polyreactivity (PSR sort gate): low polyreactivity

QVQLVESGGGLVQAGGSLRLSCAASGRIFDHNAMGWYRQAPGKERELVAAIDWSGGSTYYADSVKGRFTISRDNAKNTVYLQMNSLKPEDTAVYYCNVYWHTFSWDDYGYWGQGTQVTVSS
polyreactivity (PSR sort gate): low polyreactivity

QVQLVESGGGLVQAGGSLRLSCAASGRIFDINAMGWYIQAPGKERELVAAINYNGSSTYYADSVKGRFTISRDNAKNTVYLQKNSLKPEDTAVYYCATVQVDVYTYDYWGQGTKVTVSS
polyreactivity (PSR sort gate): high polyreactivity

QVQLVESGGGLVQAGGSLRLSCAASGRIFDLYAMRWYRQAPGKESELVAAISIRGGSTYYADSVKGRFTISRDNAKNTVYLQMNSLKPEDTAVYYCAAEGPWLSDEYDYWGQGTQVTVSS
polyreactivity (PSR sort gate): low polyreactivity

QVQLVESGGGLVQAGGSLRLSCAASGRIFDLYTMGWYRQAPGKERELVAAISSSGGSTYYADSVKGRFTISRDNARNTVYLQMNSLKPEDTAVYYCNADWYYAGYGYWGQGTQVTVSS
polyreactivity (PSR sort gate): low polyreactivity

QVQLVESGGGLVQAGGSLRLSCAASGRIFDQYALGGSRQAPGKERELVAAITSGGSTYYADSVKGRFTISRDNAKNTVYLQMNSLKPEDTAVYYCAAEWQWYGYVLYKYYYWGQGTQVTVSS
polyreactivity (PSR sort gate): high polyreactivity

QVQLVESGGGLVQAGGSLRLSCAASGRIFDRNAMGWYRQAPGKERELVATISSGDTTDYADSVKGRFTISRDNAKNTVYLQMNSLKPEDTAVYYITIYNYWGQGTQVTVSS
polyreactivity (PSR sort gate): low polyreactivity

QVQLVESGGGLVQAGGSLRLSCAASGRIFDRNAMVWYRQEPWKERELVAAIDDSGGDTSYADSVKGRFTISRDNAKNTVYLQMNSLKPEDTAVYYCNAGYADFVTYPRYYYWGQGTQVTLSS
polyreactivity (PSR sort gate): low polyreactivity

QVQLVESGGGLVQAGGSLRLSCAASGRIFDRYAMGWYRQAPGKERELVAAITSSGGRTYYADSVKGRFTISRDNAKNTVYLQMYSLKPEDTAVYYCAARWYGGYNYWGQGTQVTVSS
polyreactivity (PSR sort gate): high polyreactivity

QVQLVESGGGLVQAGGSLRLSCAASGRIFDRYAMGWYRQAPGKERELVASITSSGGNTYYADSVKGRFTISRDNAKNTVYLQMNSLKPEDTAVYYCAKPQRVWQYGNYYYWGQGTQVTVSS
polyreactivity (PSR sort gate): high polyreactivity

QVQLVESGGGLVQAGGSLRLSCAASGRIFDRYAMGWYRQAPGKERELVATIDSGGSTNYADSVKGRFTISRDNAKNTVYLQMNSLKPEDTAVYYCAVVTHSGYWSYYYWGQGTQVTVSS
polyreactivity (PSR sort gate): low polyreactivity
